Measurements as given in PMC9482650, “Quantitative fragmentomics allow affinity mapping of interactomes” (Nature Communications, 2022).

B1: PPFIA1, Q13136 (peptide)
chain: DSATVRTYSC
B2: CLDN19, Q8N6F1 (peptide)
chain: PASAKGPLGV
B3: SLC6A3, Q01959 (peptide)
chain: QFTLRHWLKV
B4: MARCHF4, Q9P2E8 (peptide)
chain: RELVMRVTTV
B5: AKAP10, O43572 (peptide)
chain: DQPLEKSTKL
B6: SH2D3C, Q8N5H7 (peptide)
chain: LEPAVRSSEL

molecular target: GRID2IP_2, A4D2P6; test: holdup assay; parameters: key: below the threshold = too weak to quantify, mostly under pKd 3.1 to 4; conditions: plain residues with an end cap or a label only (N-terminal biotin on a linker: ado-ado)
Sequence (A4D2P6 272-370): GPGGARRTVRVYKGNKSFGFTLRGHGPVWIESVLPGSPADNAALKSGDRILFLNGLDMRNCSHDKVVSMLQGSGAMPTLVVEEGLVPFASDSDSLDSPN

Binder	pKd
B1	3.49
B2	below the threshold
B3	below the threshold
B4	4.06
B5	4.75
B6	4.38

molecular target: T1, SYNJ2BP, P57105; test: holdup assay; parameters: key: below the threshold = too weak to quantify, mostly under pKd 3.1 to 4; conditions: plain residues with an end cap or a label only (N-terminal biotin on a linker: ado-ado)
T1 sequence (P57105 8-110, limits assumed, looked up): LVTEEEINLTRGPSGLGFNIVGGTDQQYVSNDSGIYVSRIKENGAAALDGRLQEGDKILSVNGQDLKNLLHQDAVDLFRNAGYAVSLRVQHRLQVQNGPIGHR

Binder	pKd
B1	below the threshold
B2	below the threshold
B3	below the threshold
B4	4.82
B5	below the threshold
B6	4.44

molecular target: T2, HTRA3, P83110; test: holdup assay; parameters: key: below the threshold = too weak to quantify, mostly under pKd 3.1 to 4; conditions: plain residues with an end cap or a label only (N-terminal biotin on a linker: ado-ado)
T2 sequence (P83110 354-453, limits assumed, looked up): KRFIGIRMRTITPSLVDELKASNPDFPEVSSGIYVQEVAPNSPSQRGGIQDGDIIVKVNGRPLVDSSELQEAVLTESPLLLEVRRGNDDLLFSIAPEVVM

Binder	pKd
B1	4.65
B2	below the threshold
B3	below the threshold
B4	below the threshold
B5	below the threshold
B6	below the threshold

molecular target: PARD3_3, Q8TEW0; test: holdup assay; parameters: key: below the threshold = too weak to quantify, mostly under pKd 3.1 to 4; conditions: plain residues with an end cap or a label only (N-terminal biotin on a linker: ado-ado)
Sequence (Q8TEW0 582-685): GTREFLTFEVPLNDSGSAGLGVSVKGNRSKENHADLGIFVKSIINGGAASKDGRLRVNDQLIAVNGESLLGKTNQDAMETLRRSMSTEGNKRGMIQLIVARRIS

Binder	pKd
B1	below the threshold
B2	below the threshold
B3	below the threshold
B4	below the threshold
B5	below the threshold
B6	below the threshold

molecular target: T3, MPDZ_10, O75970; test: holdup assay; parameters: key: below the threshold = too weak to quantify, mostly under pKd 3.1 to 4; conditions: plain residues with an end cap or a label only (N-terminal biotin on a linker: ado-ado)
T3 sequence (O75970 1624-1722, limits assumed, looked up): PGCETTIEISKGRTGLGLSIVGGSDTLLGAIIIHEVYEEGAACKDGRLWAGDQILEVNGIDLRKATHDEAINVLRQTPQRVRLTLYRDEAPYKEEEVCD

Binder	pKd
B1	below the threshold
B2	below the threshold
B3	below the threshold
B4	4.35
B5	below the threshold
B6	below the threshold

molecular target: T4, APBA1_1, Q02410; test: holdup assay; parameters: key: below the threshold = too weak to quantify, mostly under pKd 3.1 to 4; conditions: plain residues with an end cap or a label only (N-terminal biotin on a linker: ado-ado)
T4 sequence (Q02410 651-752, limits assumed, looked up): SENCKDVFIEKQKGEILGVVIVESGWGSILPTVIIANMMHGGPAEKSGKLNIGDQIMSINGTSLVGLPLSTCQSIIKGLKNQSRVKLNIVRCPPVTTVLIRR

Binder	pKd
B1	below the threshold
B2	below the threshold
B3	below the threshold
B4	below the threshold
B5	below the threshold
B6	below the threshold

molecular target: T5, TX1BP3, O14907; test: holdup assay; parameters: key: below the threshold = too weak to quantify, mostly under pKd 3.1 to 4; conditions: plain residues with an end cap or a label only (N-terminal biotin on a linker: ado-ado)
T5 sequence (O14907 10-122, limits assumed, looked up): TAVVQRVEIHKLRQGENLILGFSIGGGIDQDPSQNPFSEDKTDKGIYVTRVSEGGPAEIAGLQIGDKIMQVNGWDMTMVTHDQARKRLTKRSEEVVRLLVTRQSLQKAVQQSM

Binder	pKd
B1	below the threshold
B2	below the threshold
B3	below the threshold
B4	4.75
B5	below the threshold
B6	3.86

molecular target: T6, LNX2_3, Q8N448; test: holdup assay; parameters: key: below the threshold = too weak to quantify, mostly under pKd 3.1 to 4; conditions: plain residues with an end cap or a label only (N-terminal biotin on a linker: ado-ado)
T6 sequence (Q8N448 463-564, limits assumed, looked up): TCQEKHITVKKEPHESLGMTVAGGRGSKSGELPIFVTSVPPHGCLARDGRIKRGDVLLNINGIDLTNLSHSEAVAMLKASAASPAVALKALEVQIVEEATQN

Binder	pKd
B1	below the threshold
B2	below the threshold
B3	below the threshold
B4	below the threshold
B5	below the threshold
B6	below the threshold

molecular target: FRMPD2_1, Q68DX3; test: holdup assay; parameters: key: below the threshold = too weak to quantify, mostly under pKd 3.1 to 4; conditions: plain residues with an end cap or a label only (N-terminal biotin on a linker: ado-ado)
Sequence (Q68DX3 770-861): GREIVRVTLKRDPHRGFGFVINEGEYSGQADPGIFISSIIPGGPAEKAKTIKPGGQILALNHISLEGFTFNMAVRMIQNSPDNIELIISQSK

Binder	pKd
B1	4.49
B2	below the threshold
B3	3.71
B4	3.48
B5	below the threshold
B6	below the threshold

molecular target: MAGI3_2, Q5TCQ9; test: holdup assay; parameters: key: below the threshold = too weak to quantify, mostly under pKd 3.1 to 4; conditions: plain residues with an end cap or a label only (N-terminal biotin on a linker: ado-ado)
Sequence (Q5TCQ9 398-503): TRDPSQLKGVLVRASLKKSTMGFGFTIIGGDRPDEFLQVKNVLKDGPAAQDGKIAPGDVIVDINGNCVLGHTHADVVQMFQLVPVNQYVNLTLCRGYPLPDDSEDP

Binder	pKd
B1	below the threshold
B2	below the threshold
B3	below the threshold
B4	5.07
B5	below the threshold
B6	below the threshold

molecular target: T7, GRIP1_7, Q9Y3R0; test: holdup assay; parameters: key: below the threshold = too weak to quantify, mostly under pKd 3.1 to 4; conditions: plain residues with an end cap or a label only (N-terminal biotin on a linker: ado-ado)
T7 sequence (Q9Y3R0 999-1096, limits assumed, looked up): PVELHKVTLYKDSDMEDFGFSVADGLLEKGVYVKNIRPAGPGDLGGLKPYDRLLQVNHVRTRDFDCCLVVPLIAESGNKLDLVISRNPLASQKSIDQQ

Binder	pKd
B1	below the threshold
B2	below the threshold
B3	below the threshold
B4	below the threshold
B5	below the threshold
B6	below the threshold

molecular target: GRID2IP_1, A4D2P6; test: holdup assay; parameters: key: below the threshold = too weak to quantify, mostly under pKd 3.1 to 4; conditions: plain residues with an end cap or a label only (N-terminal biotin on a linker: ado-ado)
Sequence (A4D2P6 1-87): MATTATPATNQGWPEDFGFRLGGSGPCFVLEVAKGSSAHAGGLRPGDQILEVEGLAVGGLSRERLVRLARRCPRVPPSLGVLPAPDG

Binder	pKd
B1	below the threshold
B2	below the threshold
B3	below the threshold
B4	below the threshold
B5	below the threshold
B6	below the threshold

molecular target: NHERF4_4, Q86UT5; test: holdup assay; parameters: key: below the threshold = too weak to quantify, mostly under pKd 3.1 to 4; conditions: plain residues with an end cap or a label only (N-terminal biotin on a linker: ado-ado)
Sequence (Q86UT5 464-550): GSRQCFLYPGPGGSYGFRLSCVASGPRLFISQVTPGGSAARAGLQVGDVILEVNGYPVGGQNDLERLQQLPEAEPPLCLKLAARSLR

Binder	pKd
B1	below the threshold
B2	below the threshold
B3	3.65
B4	below the threshold
B5	below the threshold
B6	3.6

molecular target: T8, APBA1_2, Q02410; test: holdup assay; parameters: key: below the threshold = too weak to quantify, mostly under pKd 3.1 to 4; conditions: plain residues with an end cap or a label only (N-terminal biotin on a linker: ado-ado)
T8 sequence (Q02410 742-832, limits assumed, looked up): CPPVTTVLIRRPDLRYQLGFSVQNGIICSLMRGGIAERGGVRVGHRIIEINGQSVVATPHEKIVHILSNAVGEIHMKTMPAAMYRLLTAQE

Binder	pKd
B1	below the threshold
B2	below the threshold
B3	below the threshold
B4	3.65
B5	below the threshold
B6	below the threshold

molecular target: Inadl_1, Q8NI35; test: holdup assay; parameters: key: below the threshold = too weak to quantify, mostly under pKd 3.1 to 4; conditions: plain residues with an end cap or a label only (N-terminal biotin on a linker: ado-ado)
Sequence (Q8NI35 113-229): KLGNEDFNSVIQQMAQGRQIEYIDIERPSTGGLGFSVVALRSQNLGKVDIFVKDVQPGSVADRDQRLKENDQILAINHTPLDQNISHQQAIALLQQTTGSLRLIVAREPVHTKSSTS

Binder	pKd
B1	below the threshold
B2	below the threshold
B3	below the threshold
B4	below the threshold
B5	below the threshold
B6	below the threshold

molecular target: T9, GRIP1_3, Q9Y3R0; test: holdup assay; parameters: key: below the threshold = too weak to quantify, mostly under pKd 3.1 to 4; conditions: plain residues with an end cap or a label only (N-terminal biotin on a linker: ado-ado)
T9 sequence (Q9Y3R0 247-346, limits assumed, looked up): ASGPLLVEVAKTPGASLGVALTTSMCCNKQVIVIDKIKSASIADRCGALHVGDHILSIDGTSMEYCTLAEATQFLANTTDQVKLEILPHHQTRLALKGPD

Binder	pKd
B1	below the threshold
B2	below the threshold
B3	below the threshold
B4	below the threshold
B5	below the threshold
B6	below the threshold

molecular target: GIPC2, Q8TF65; test: holdup assay; parameters: key: below the threshold = too weak to quantify, mostly under pKd 3.1 to 4; conditions: plain residues with an end cap or a label only (N-terminal biotin on a linker: ado-ado)
Sequence (Q8TF65 112-203): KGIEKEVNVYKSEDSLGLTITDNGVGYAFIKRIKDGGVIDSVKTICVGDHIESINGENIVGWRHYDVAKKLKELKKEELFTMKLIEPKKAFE

Binder	pKd
B1	below the threshold
B2	below the threshold
B3	below the threshold
B4	below the threshold
B5	below the threshold
B6	below the threshold

molecular target: MAST1, Q9Y2H9; test: holdup assay; parameters: key: below the threshold = too weak to quantify, mostly under pKd 3.1 to 4; conditions: plain residues with an end cap or a label only (N-terminal biotin on a linker: ado-ado)
Sequence (Q9Y2H9 962-1065): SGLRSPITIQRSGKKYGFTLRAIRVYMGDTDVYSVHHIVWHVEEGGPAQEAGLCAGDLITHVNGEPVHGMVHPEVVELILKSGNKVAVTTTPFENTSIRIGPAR

Binder	pKd
B1	below the threshold
B2	3.69
B3	4.24
B4	4.61
B5	4.55
B6	4.49

molecular target: T10, PDZD7_3, Q9H5P4; test: holdup assay; parameters: key: below the threshold = too weak to quantify, mostly under pKd 3.1 to 4; conditions: plain residues with an end cap or a label only (N-terminal biotin on a linker: ado-ado)
T10 sequence (Q9H5P4 857-944, limits assumed, looked up): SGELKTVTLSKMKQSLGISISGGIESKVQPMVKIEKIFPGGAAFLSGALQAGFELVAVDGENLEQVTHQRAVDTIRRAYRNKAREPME

Binder	pKd
B1	below the threshold
B2	below the threshold
B3	below the threshold
B4	5.28
B5	4.54
B6	4.71

molecular target: T11, SNTB1, Q13884; test: holdup assay; parameters: key: below the threshold = too weak to quantify, mostly under pKd 3.1 to 4; conditions: plain residues with an end cap or a label only (N-terminal biotin on a linker: ado-ado)
T11 sequence (Q13884 107-205, limits assumed, looked up): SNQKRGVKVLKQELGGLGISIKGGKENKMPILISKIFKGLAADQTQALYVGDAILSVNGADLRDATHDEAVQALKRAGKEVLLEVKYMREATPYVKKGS

Binder	pKd
B1	below the threshold
B2	below the threshold
B3	below the threshold
B4	5.11
B5	3.99
B6	4.11

molecular target: DLG2_2, Q15700; test: holdup assay; parameters: key: below the threshold = too weak to quantify, mostly under pKd 3.1 to 4; conditions: plain residues with an end cap or a label only (N-terminal biotin on a linker: ado-ado)
Sequence (Q15700 189-283): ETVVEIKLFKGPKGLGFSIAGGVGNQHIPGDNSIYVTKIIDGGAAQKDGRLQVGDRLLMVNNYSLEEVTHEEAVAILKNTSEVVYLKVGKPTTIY

Binder	pKd
B1	below the threshold
B2	below the threshold
B3	below the threshold
B4	5.2
B5	below the threshold
B6	below the threshold

molecular target: T12, SHANK1, Q9Y566; test: holdup assay; parameters: key: below the threshold = too weak to quantify, mostly under pKd 3.1 to 4; conditions: plain residues with an end cap or a label only (N-terminal biotin on a linker: ado-ado)
T12 sequence (Q9Y566 658-767, limits assumed, looked up): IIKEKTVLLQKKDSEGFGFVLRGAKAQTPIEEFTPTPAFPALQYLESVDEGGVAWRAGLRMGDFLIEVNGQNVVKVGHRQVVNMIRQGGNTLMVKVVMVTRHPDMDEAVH

Binder	pKd
B1	below the threshold
B2	below the threshold
B3	below the threshold
B4	3.58
B5	5.33
B6	3.86

molecular target: T13, MPP7, Q5T2T1; test: holdup assay; parameters: key: below the threshold = too weak to quantify, mostly under pKd 3.1 to 4; conditions: plain residues with an end cap or a label only (N-terminal biotin on a linker: ado-ado)
T13 sequence (Q5T2T1 134-230, limits assumed, looked up): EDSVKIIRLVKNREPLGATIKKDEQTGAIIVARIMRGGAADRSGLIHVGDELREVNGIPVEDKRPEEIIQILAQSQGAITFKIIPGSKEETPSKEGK

Binder	pKd
B1	3.92
B2	below the threshold
B3	below the threshold
B4	below the threshold
B5	below the threshold
B6	below the threshold
